# Data from paper PMC10588329.
# pKd: −log10 of the molar value.
# Tests used:
# [1] = biological target: CaMKII^L308BzF (human) (UniProt Q9UQM7); test: SEC
# [2] = biological target: CaMKII^L308BzF (human) (UniProt Q9UQM7); test: mass photometry
# [3] = biological target: CaMKII^L308BzF (human) (UniProt Q9UQM7); test: cross-linking
# [4] = biological target: Human wild-type CaMKII α (CaMKII^WT) (human) (UniProt Q9UQM7); test: mass photometry
# Sequence of UniProt Q9UQM7 (Q9UQM7 6-478): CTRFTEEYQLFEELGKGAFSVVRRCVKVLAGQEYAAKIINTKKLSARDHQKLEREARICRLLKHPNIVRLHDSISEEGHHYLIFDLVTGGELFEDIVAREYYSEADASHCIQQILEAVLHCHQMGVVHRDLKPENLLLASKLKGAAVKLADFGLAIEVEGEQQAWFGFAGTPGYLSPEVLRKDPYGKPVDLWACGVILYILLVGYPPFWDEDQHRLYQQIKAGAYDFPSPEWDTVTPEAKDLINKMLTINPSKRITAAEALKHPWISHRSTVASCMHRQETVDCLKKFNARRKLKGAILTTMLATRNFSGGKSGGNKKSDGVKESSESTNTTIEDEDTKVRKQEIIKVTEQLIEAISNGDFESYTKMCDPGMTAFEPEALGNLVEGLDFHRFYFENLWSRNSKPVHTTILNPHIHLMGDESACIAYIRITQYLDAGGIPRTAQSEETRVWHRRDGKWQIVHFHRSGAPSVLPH
substance,measurement,setting,value
CaMKII^L308BzF (from UniProt Q9UQM7 6-478) (enzyme),stoichiometry N,[1],12 subunits
same,stoichiometry N,[2],12 subunits
His-tagged Calmodulin (Calbiochem) (from UniProt P0DP23 1-149) (natural protein),pKd,[3],5.60
same,stoichiometry N (Calmodulin per CaMKII dodecamer),[2],12
Human Calmodulin (self-made) (from UniProt P0DP23 1-149) (natural protein),stoichiometry N (Calmodulin per CaMKII dodecamer),[4],5
same,stoichiometry N (Calmodulin per CaMKII holoenzyme),[4],6
